{
  "source": "the supplement of paper PMC10567573",
  "parents": {"B1": {"name": "MLL5 (parent)", "chain": "EQIAERKRKMVSWEASSLGLVTAA"}},
  "data": [
    {"variants_of": "B1", "assay": "protein stability index of a GFP-peptide fusion (GPS, HEK-293T) (PSI 1-6); higher = more stable", "conditions": "c terminus: a fixed tail appended", "values": [
      {"variant": "EQIAERKRKMVSWEASSLYLVTAA", "note": "[G19Y]", "protein stability index": 1.84},
      {"variant": "EQIAERKRKMVSWEASSLSLVTAA", "note": "[G19S]", "protein stability index": 3.84},
      {"variant": "EQIAERKRKMVSWEASSLRLVTAA", "note": "[G19R]", "protein stability index": 3.16},
      {"variant": "EQIAERKRKMVSWEASSLKLVTAA", "note": "[G19K]", "protein stability index": 3.09},
      {"variant": "EQIAERKRKMVSWEASSLELVTAA", "note": "[G19E]", "protein stability index": 3.71},
      {"variant": "EQIAERKRKMVSWEASSLMLVTAA", "note": "[G19M]", "protein stability index": 2.65},
      {"variant": "EQIAERKRKMVSWEASSLWLVTAA", "note": "[G19W]", "protein stability index": 1.74},
      {"variant": "EQIAERKRKYVSWEASSLGLVTAA", "note": "[M10Y]", "protein stability index": 2.89},
      {"variant": "EQIAERKRKIVSWEASSLGLVTAA", "note": "[M10I]", "protein stability index": 2.81},
      {"variant": "EQIAERKRKDVSWEASSLGLVTAA", "note": "[M10D]", "protein stability index": 4.4},
      {"variant": "EQIAERKRKQVSWEASSLGLVTAA", "note": "[M10Q]", "protein stability index": 3.95},
      {"variant": "EQIAERKRKCVSWEASSLGLVTAA", "note": "[M10C]", "protein stability index": 3.29},
      {"variant": "EQIAERKRKRVSWEASSLGLVTAA", "note": "[M10R]", "protein stability index": 4.01},
      {"variant": "EQIAERKRKTVSWEASSLGLVTAA", "note": "[M10T]", "protein stability index": 3.55},
      {"variant": "EQIAERKRWMVSWEASSLGLVTAA", "note": "[K9W]", "protein stability index": 1.88},
      {"variant": "EQIAERKRGMVSWEASSLGLVTAA", "note": "[K9G]", "protein stability index": 3.73},
      {"variant": "EQIAERKRNMVSWEASSLGLVTAA", "note": "[K9N]", "protein stability index": 3.84},
      {"variant": "EQIAERKREMVSWEASSLGLVTAA", "note": "[K9E]", "protein stability index": 3.52},
      {"variant": "EQIAERKRHMVSWEASSLGLVTAA", "note": "[K9H]", "protein stability index": 1.76},
      {"variant": "EQIAERKRTMVSWEASSLGLVTAA", "note": "[K9T]", "protein stability index": 2.31},
      {"variant": "EQIAERKRKMVSWEAPSLGLVTAA", "note": "[S16P]", "protein stability index": 3},
      {"variant": "EQIAERKRKMVSWEAHSLGLVTAA", "note": "[S16H]", "protein stability index": 1.57},
      {"variant": "EQIAERKRKMVSWEARSLGLVTAA", "note": "[S16R]", "protein stability index": 3.57},
      {"variant": "EQIAERKRKMVSWEAASLGLVTAA", "note": "[S16A]", "protein stability index": 3.11},
      {"variant": "EQIAERKRKMVSWEADSLGLVTAA", "note": "[S16D]", "protein stability index": 2.86},
      {"variant": "EQIAERKRKMVSWEALSLGLVTAA", "note": "[S16L]", "protein stability index": 1.99},
      {"variant": "EQIAERKRKMVSWEATSLGLVTAA", "note": "[S16T]", "protein stability index": 2.77},
      {"variant": "EQIAERKRKMVSWEAESLGLVTAA", "note": "[S16E]", "protein stability index": 3.02},
      {"variant": "EQIAERKRKMVQWEASSLGLVTAA", "note": "[S12Q]", "protein stability index": 2.33},
      {"variant": "EQIAERKRKMVVWEASSLGLVTAA", "note": "[S12V]", "protein stability index": 2.68},
      {"variant": "EQIAERKRKMVNWEASSLGLVTAA", "note": "[S12N]", "protein stability index": 3.19},
      {"variant": "EQIAERKRKMVLWEASSLGLVTAA", "note": "[S12L]", "protein stability index": 2.37},
      {"variant": "EQIAERKRKMVCWEASSLGLVTAA", "note": "[S12C]", "protein stability index": 2.36},
      {"variant": "EQIAERKRKMVAWEASSLGLVTAA", "note": "[S12A]", "protein stability index": 3.35},
      {"variant": "EQIAERKRKMVYWEASSLGLVTAA", "note": "[S12Y]", "protein stability index": 2.22},
      {"variant": "EQIAERKRKMVDWEASSLGLVTAA", "note": "[S12D]", "protein stability index": 2.85},
      {"variant": "EQIAERKRKMVSWEASSLGLPTAA", "note": "[V21P]", "protein stability index": 2.44},
      {"variant": "EQIAERKRKMVSWEASSLGLDTAA", "note": "[V21D]", "protein stability index": 3.55},
      {"variant": "EQIAERKRKMVSWEASSLGLNTAA", "note": "[V21N]", "protein stability index": 3.22},
      {"variant": "EQIAERKRKMVSWEASSLGLETAA", "note": "[V21E]", "protein stability index": 2.73},
      {"variant": "EQIAERKRKMVSWEASSLGLSTAA", "note": "[V21S]", "protein stability index": 3.68},
      {"variant": "EQIAERKRKMVSWEASSLGLHTAA", "note": "[V21H]", "protein stability index": 2.82},
      {"variant": "EQIAERKRKMVSWEASSLGLVTAK", "note": "[A24K]", "protein stability index": 2.4},
      {"variant": "EQIAERKRKMVSWEASSLGLVTAQ", "note": "[A24Q]", "protein stability index": 3.39},
      {"variant": "EQIAERKRKMVSWEASSLGLVTAD", "note": "[A24D]", "protein stability index": 4.11},
      {"variant": "EQIAERKRKMVSWEASSLGVVTAA", "note": "[L20V]", "protein stability index": 3.37},
      {"variant": "EQIAERKRKMVSWEASSLGTVTAA", "note": "[L20T]", "protein stability index": 3.87},
      {"variant": "EQIAERKRKMVSWEASSLGIVTAA", "note": "[L20I]", "protein stability index": 3.77},
      {"variant": "EQIAERKRKMVSWEASSLGHVTAA", "note": "[L20H]", "protein stability index": 3.54},
      {"variant": "EQIAERKRKMVSWEASSLGSVTAA", "note": "[L20S]", "protein stability index": 4.99},
      {"variant": "EQIAERKRKMVSWEASSLGEVTAA", "note": "[L20E]", "protein stability index": 4.3},
      {"variant": "EQIAERKRKMVSWEASSLGYVTAA", "note": "[L20Y]", "protein stability index": 2.68},
      {"variant": "EQIAERKRKMVSWEASSLGWVTAA", "note": "[L20W]", "protein stability index": 2.42},
      {"variant": "EQIAERKRKMVSWEASSLGCVTAA", "note": "[L20C]", "protein stability index": 3.71},
      {"variant": "EQIAERKRKMVSWEASSLGPVTAA", "note": "[L20P]", "protein stability index": 3.72},
      {"variant": "EQIAERKRKMVSWEASSLGDVTAA", "note": "[L20D]", "protein stability index": 3.82},
      {"variant": "EQIAERKRKMVSWEASSLGLVTSA", "note": "[A23S]", "protein stability index": 2.68},
      {"variant": "EQIAERKRKMVSWEASSLGLVTFA", "note": "[A23F]", "protein stability index": 1.58},
      {"variant": "EQIAERKRKMVSWEASSLGLVTEA", "note": "[A23E]", "protein stability index": 3.96},
      {"variant": "EQIAERKRKMVSWEASSLGLVTWA", "note": "[A23W]", "protein stability index": 2.08},
      {"variant": "EQIAERKRKMVSWEASSLGLVTKA", "note": "[A23K]", "protein stability index": 3.27},
      {"variant": "EQIAERKRKMVSWEASSLGLVTMA", "note": "[A23M]", "protein stability index": 3.11},
      {"variant": "EQIAERKRKMVSWEASSLGLVTYA", "note": "[A23Y]", "protein stability index": 2.28},
      {"variant": "EQIAERKRKMVSWEASSLGLVTIA", "note": "[A23I]", "protein stability index": 3.23},
      {"variant": "EQIAERKRKMVSWEASSLGLVFAA", "note": "[T22F]", "protein stability index": 1.83},
      {"variant": "EQIAERKRKMVSWEASSLGLVEAA", "note": "[T22E]", "protein stability index": 3.63},
      {"variant": "EQIAERKRKMVSWEASSLGLVWAA", "note": "[T22W]", "protein stability index": 1.79},
      {"variant": "EQIAERKRKMVSWEASSLGLVMAA", "note": "[T22M]", "protein stability index": 2.63},
      {"variant": "EQIAERKRKMVSWEASSLGLVAAA", "note": "[T22A]", "protein stability index": 3.33},
      {"variant": "EQIAERKRKMVSWEASSLGLVVAA", "note": "[T22V]", "protein stability index": 3.58},
      {"variant": "EQIAERKRKMVSWEASSLGLVDAA", "note": "[T22D]", "protein stability index": 3.63},
      {"variant": "EQIAERKRKMVSWEASSLGLVSAA", "note": "[T22S]", "protein stability index": 2.92},
      {"variant": "EQIAERKRKMVSWEASSLGLVHAA", "note": "[T22H]", "protein stability index": 2.85},
      {"variant": "EQIAERKRKMVSWEASSLGLVLAA", "note": "[T22L]", "protein stability index": 2.18},
      {"variant": "EQIAERKRKMVSPEASSLGLVTAA", "note": "[W13P]", "protein stability index": 4.38},
      {"variant": "EQIAERKRKMVSQEASSLGLVTAA", "note": "[W13Q]", "protein stability index": 4.56},
      {"variant": "EQIAERKRKMVSAEASSLGLVTAA", "note": "[W13A]", "protein stability index": 4.19},
      {"variant": "EQIAERKRKMVSNEASSLGLVTAA", "note": "[W13N]", "protein stability index": 4.02},
      {"variant": "EQIAERKRKMVSHEASSLGLVTAA", "note": "[W13H]", "protein stability index": 3.97},
      {"variant": "EQIAERKRKMVSDEASSLGLVTAA", "note": "[W13D]", "protein stability index": 4.67},
      {"variant": "EQIAERKRKMVSKEASSLGLVTAA", "note": "[W13K]", "protein stability index": 3.85},
      {"variant": "EQIAERKRKMVSSEASSLGLVTAA", "note": "[W13S]", "protein stability index": 4.33},
      {"variant": "EQIAERKRKMVSVEASSLGLVTAA", "note": "[W13V]", "protein stability index": 4},
      {"variant": "EQIAERKRKMVSYEASSLGLVTAA", "note": "[W13Y]", "protein stability index": 3.29},
      {"variant": "EQIAERKRKMVSMEASSLGLVTAA", "note": "[W13M]", "protein stability index": 3.07},
      {"variant": "EQIAERKRKMVSWNASSLGLVTAA", "note": "[E14N]", "protein stability index": 3.39},
      {"variant": "EQIAERKRKMVSWDASSLGLVTAA", "note": "[E14D]", "protein stability index": 2.07},
      {"variant": "EQIAERKRKMVSWVASSLGLVTAA", "note": "[E14V]", "protein stability index": 1.97},
      {"variant": "EQIAERKRKMVSWYASSLGLVTAA", "note": "[E14Y]", "protein stability index": 2.52},
      {"variant": "EQIAERKRKMVSWMASSLGLVTAA", "note": "[E14M]", "protein stability index": 2.24},
      {"variant": "EQIAERKRKMVSWHASSLGLVTAA", "note": "[E14H]", "protein stability index": 2.85},
      {"variant": "EQIAERKRKMVSWGASSLGLVTAA", "note": "[E14G]", "protein stability index": 2.2},
      {"variant": "EQIAERKRKMVSWSASSLGLVTAA", "note": "[E14S]", "protein stability index": 2.47},
      {"variant": "EQIAERKRKMVSWAASSLGLVTAA", "note": "[E14A]", "protein stability index": 2.8}
    ]}
  ]
}
